Test results published in patent publication US20150315275A1 (AstraZeneca / MedImmune, published 2015).
Substitutions are numbered along the chain they refer to. Names may count otherwise. “And” between values parts separate entries of the source, which are not always exact repeats. Identical values can stand only once.

T1: mouse B7-H4ECD mIgG2a Fc fusion protein (mouse, UniProt Q7TSP5 25-257, limits assumed)
T1 construct: also called mouse B7-H4-mIg fusion protein; Mouse B7-H4-mouse-Ig Fusion Protein; not shown: mouse IgG2a Fc
T1 sequence: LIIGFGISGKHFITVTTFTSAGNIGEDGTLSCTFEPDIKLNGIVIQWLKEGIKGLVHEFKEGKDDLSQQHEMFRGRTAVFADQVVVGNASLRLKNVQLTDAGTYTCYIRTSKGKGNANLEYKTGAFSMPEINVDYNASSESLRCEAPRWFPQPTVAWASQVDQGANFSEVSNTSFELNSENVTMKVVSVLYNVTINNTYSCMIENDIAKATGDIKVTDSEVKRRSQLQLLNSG

T2: B7-H4ECD his-tagged protein (Sinobiologics) (human, UniProt Q7Z7D3 25-259)
T2 construct: Bought protein; Result paragraph calls the target human B7-H4; also called B7-H4 extracellular domain; not shown: his tag
T2 sequence: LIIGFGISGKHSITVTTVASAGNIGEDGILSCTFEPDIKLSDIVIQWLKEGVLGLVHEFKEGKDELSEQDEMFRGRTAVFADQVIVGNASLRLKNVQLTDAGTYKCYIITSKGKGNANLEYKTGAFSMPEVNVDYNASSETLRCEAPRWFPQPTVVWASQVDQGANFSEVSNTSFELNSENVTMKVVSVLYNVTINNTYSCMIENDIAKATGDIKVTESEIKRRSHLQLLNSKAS

T3: human B7-H4 expressed on cells (human, UniProt Q7Z7D3 25-282)
T3 construct: the cell line is named under assay or readout; also called full length human B7-H4 on HEK293 cells; 293T.hB7-H4
T3 sequence: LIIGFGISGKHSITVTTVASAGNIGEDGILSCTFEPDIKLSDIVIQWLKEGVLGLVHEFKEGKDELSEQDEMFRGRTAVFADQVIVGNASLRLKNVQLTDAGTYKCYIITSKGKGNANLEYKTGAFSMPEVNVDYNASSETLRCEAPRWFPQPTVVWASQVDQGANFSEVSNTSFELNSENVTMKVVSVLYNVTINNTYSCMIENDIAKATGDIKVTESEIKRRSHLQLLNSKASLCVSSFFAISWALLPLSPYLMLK

B1: chimeric 6H3 (antibody, V domains shown)
VH: EVQLQQSGPVLVKPGTSVKMSCKASGYTFTDYYMNWVKQSHGKSLEWIGVINPYNGDTTYNQKFKGKATLTVDKSSSTAYMEVNSLTFEDSAVYYCARYPESTYWGQGTLVTVSA
VL: DVVMTQTPLSLPVSLGDQASISCRSSQSLVHINGNTYLHWYLQKPGQSPKVLIYKVSNRFSGVPDRFSGSGSGTDFTLKISRVEAEDLGVYFCSQSTHVPLTFGAGTKLELK
notes: Mouse variable regions with constant regions from the human IgG1 heavy chain and human kappa light chain; also called human chimeric 6H3; hc6H3
B2: humanized 6H3 variant 4 (antibody, V domains shown)
VH: EVQLVQSGAEMKKPGASVKVSCKASGYTFTDYYMNWVRQAPGQSLEWIGVINPYNGDTTYNQKFQGRVTVTVDKSATTAYMELSSLRSEDTAVYYCARYPESTYWGQGTLVTVSS
VL: DVVMTQSPLSLPVTLGQPASISCRSSQSLVHINGNTYLHWYQQRPGQSPRVLIYKVSNRFSGVPDRFSGSGSGTDFTLKISRVEAEDVGVYFCSQSTHVPLTFGGGTKVEIK
notes: also called V4; Variant 4 (antibody)
B3: humanized 6H3 variant 2 (antibody, V domains shown)
VH: B2 VH with M11V, S44G, V50I, T59S, Q65K, V70L, A76T, T77S
VL: B2 VL
notes: also called V2; 6H3 V2
B4: humanized 6H3 variant 3 (antibody, V domains shown)
VH: B2 VH with I48M, T71A
VL: B2 VL
notes: also called V3; H2B L1B
B5: humanized 6H3 variant 5 (antibody, V domains shown)
VH: B2 VH with M11V, S44G, V50I, T59S, Q65K, V70L, A76T, T77S
VL: B2 VL with Q42L, R50K
notes: also called V5; Variant 5 (antibody)
B6: humanized 6H3 variant 6 (antibody, V domains shown)
VH: B2 VH with I48M, T71A
VL: B2 VL with Q42L, R50K
notes: also called V6; Variant 6 (antibody)
B7: humanized 6H3 variant 7 (antibody, V domains shown)
VH: B2 VH
VL: B2 VL with Q42L, R50K
notes: also called V7; 6H3 V7
B8: humanized 6H3 variant 9 (antibody, V domains shown)
VH: B2 VH with M11V, S44G, V50I, T59S, Q65K, V70L, A76T, T77S
VL: B2 VL with V2I, S7T, G105Q
notes: also called V9; 6H3 V9
B9: humanized 6H3 variant 10 (antibody, V domains shown)
VH: B2 VH with I48M, T71A
VL: B2 VL with V2I, S7T, G105Q
notes: also called V10; H2B L2B
B10: humanized 6H3 variant 11 (antibody, V domains shown)
VH: B2 VH
VL: B2 VL with V2I, S7T, G105Q
notes: also called V11; H2C L2B
B11: humanized 6H3 variant 13 (antibody, V domains shown)
VH: B2 VH with I48M, T71A
VL: B2 VL with V2I, S7T, Q42L, R50K, G105A
notes: also called V13; H2B L2C
B12: humanized 6H3 variant 14 (antibody, V domains shown)
VH: B2 VH
VL: B2 VL with V2I, S7T, Q42L, R50K, G105A
notes: also called V14; 6H3 V14
B13: humanized 6H3 variant 12 (antibody, V domains shown)
VH: B2 VH with M11V, S44G, V50I, T59S, Q65K, V70L, A76T, T77S
VL: B2 VL with V2I, S7T, Q42L, R50K, G105A
notes: also called V12; 6H3 V12
B14: humanized 6H3 variant 1 (antibody, V domains shown)
VH: QVQLVQSGAEVKKPGASVKVSCKASGYTFTDYYMHWVRQAPGQGLEWMGIINPYNGDTSYAQKFQGRVTMTRDTSTSTVYMELSSLRSEDTAVYYCARYPESTYWGQGTLVTVSS
VL: B2 VL
notes: also called V1; H1A L1B
B15: humanized 6H3 variant 8 (antibody, V domains shown)
VH: B14 VH
VL: B2 VL with V2I, S7T, G105Q
notes: also called V8; H1A L2B

The binders below were run against T4, B7-H4-Ig fusion protein (human) (assay: competition ELISA on B7-H4-Ig-coated plate, Plate 1; competitor biotinylated mouse 6H3 (5 ng/ml)).
T4 construct: also called human B7-H4 Ig
Description: (§1) A 12-point, 3-fold dilution series of 14 humanized 6H3 antibody variants was prepared ranging from 100 μg/ml to 0.5 ng/ml. Dilutions were prepared in assay diluent containing biotinylated mouse anti-human B7-H4 6H3 (SEQ ID NOS:3 and 5 for light chain variable region and heavy chain variable region respectively) at 5 ng/ml. Antibodies were allowed to bind to B7-H4-Ig-coated assay plates (200 ng/well) for 1 hour at room temperature and detected with streptavidin HRP.

Binder	EC50
B1	2.44 µg/mL and 16.2 nM
B2	2.95 µg/mL and 19.7 nM
B3	2.46 µg/mL and 16.4 nM
B4	3.09 µg/mL and 20.6 nM
B5	3.62 µg/mL and 24.2 nM
B6	2.53 µg/mL and 16.9 nM
B7	2.63 µg/mL and 17.5 nM

The binders below were run against T1, mouse B7-H4ECD mIgG2a Fc fusion protein (assay: ELISA, mouse B7-H4ECD mIgG2a Fc fusion coated).
Description: 100 μg/ml mouse B7-H4ECD mIgG2a Fc fusion protein diluted in PBS was immobilized on flat bottom 96 well plate (Costar 9017) overnight at 4° C. Plates were washed twice with PBS+0.1% PS-20 and blocked with 200 μl/well PBS 10% FBS at RT for 1 hr. 100 μl chimeric 6H3 and 14 selected 6H3 humanized variants diluted in PBS 10% FBS were added to each well and incubated at RT for 1 hr. Plates were washed three times and 100 μl 1 μg/ml anti-human Ig HRP (Sigma) was added to each well and incubated at RT for 1 hr. Plates were washed six times and 100 μl TMB substrate (SurModics) was added to each well for 5-15 mins 100 μl stop solution (0.1M Sulfuric acid) was added to each well. Plates were read at Absorbance 450 nm by PerkinElmer EnVision 2104 Multilabel Reader.

Binder	EC50
B1	90 pM
B2	80 pM
B3	80 pM
B4	100 pM
B5	50 pM
B6	130 pM
B7	110 pM
B8	70 pM
B9	130 pM
B10	110 pM
B11	130 pM
B12	110 pM
B13	90 pM
B14	100 pM
B15	60 pM

What follows are binders tested against T2, B7-H4ECD his-tagged protein … (assay: ELISA, B7-H4ECD his-tagged protein coated).
Description: 100 μl 1 μg/ml B7-H4ECD his-tagged protein (Sinobiologics) diluted in PBS was immobilized on flat bottom 96 well plate (Costar 9017) overnight at 4° C. Plates were washed twice with PBS+0.1% PS-20 and blocked with 200 μl/well PBS 10% FBS at RT for 1 hr. 100 μl chimeric 6H3 and 14 selected 6H3 humanized variants diluted in PBS 10% FBS were added to each well and incubated at RT for 1 hr. Plates were washed three times and 100 μl 1 μg/ml anti-human Ig HRP (Sigma) was added to each well and incubated at RT for 1 hr. Plates were washed six times and 100 μl TMB substrate (SurModics) was added to each well for 5-15 mins 100 μl stop solution (0.1M Sulfuric acid) was added to each well. Plates were read at Absorbance 450 nm by PerkinElmer EnVision 2104 Multilabel Reader.

Binder	EC50
B1	620 pM
B2	1160 pM
B3	510 pM
B4	1190 pM
B5	950 pM
B6	1640 pM
B7	1070 pM
B8	750 pM
B9	890 pM
B10	970 pM
B11	920 pM
B12	680 pM
B13	780 pM

These binders were tested against T3, human B7-H4 expressed on cells (assay: saturation binding, flow cytometry on 624mel/B7-H4 cells, biotinylated mAb, azide-treated cells; unit not given).
Description: A saturation binding experiment was carried out on 624mel/B7-H4 cells using the chimeric 6H3 mAb and humanized variants of 6H3. Briefly, 50,000 cells were pretreated with 0.1% azide on ice for 30 minutes to inhibit B7-H4 internalization then stained for 30 minutes with biotinylated anti-B7-H4 mAbs. The mAbs were diluted in a 12-point, 3-fold dilution series ranging from 200 μg/ml down to 1 ng/ml. Cell were stained with streptavidin PE for 10 minutes, washed, fixed and analyzed by flow cytometry.
FIGS. 35A-35B are binding curves for the raw (FIG. 35A) and background subtracted data (FIG. 35B). […] The subtracted values were used to determine the Kd and Bmax. The antibodies appear to fall into two groups based on Kd values (Table 10).

Binder	Bmax
B1	5810
B3	4650
B6	6420
B7	6080
B8	4610
B12	5580
B13	4580

The binders below were run against T4, B7-H4-Ig fusion protein (assay: competition ELISA on B7-H4-Ig-coated plate, Plate 2; competitor biotinylated mouse 6H3 (5 ng/ml)).
Description: as §1

Binder	EC50
B1	2.26 µg/mL and 15.1 nM
B8	2.69 µg/mL and 17.9 nM
B9	2.13 µg/mL and 14.2 nM
B10	2.2 µg/mL and 14.7 nM
B11	2.11 µg/mL and 14.1 nM
B12	2.49 µg/mL and 16.6 nM
B13	3 µg/mL and 20 nM

These binders were tested against T3, human B7-H4 expressed on cells (assay: flow cytometry on HEK293.hB7-H4 transfectants, one-site specific binding fit).
Description: For each staining, 0.2 million HEK293.hB7-H4 transfectants were resuspended in 100 μl flow cytometry buffer (PBS+2% FBS). A serial dilution of chimeric 6H3 and 14 humanized variants of 0, 0.1 ng, 0.3 ng, 1 ng, 3 ng, 10 ng, 30 ng, 100 ng, 300 ng, 1 μg, 3 μg and 10 μg were added to the cells and incubated at 4° C. for 30 min. Cells were then washed twice with 2 ml flow cytometry buffer, and resuspended in 100 μl flow cytometry buffer. 1 μl anti-hIg PE secondary antibody (Biolegend) was added and incubated with the cells for 15 mins Samples were then washed and resuspended in 100 μl flow cytometry buffer. Flow Cytometry data was acquired using BD Canto (BD Biosciences) in plate format and analyzed by FlowJo software. Staining data (MFI) was then input into Prism 5 software to generate binding curve. Curve-fit using one-site specific binding algorithm calculates individual KD for each variant.

Binder	Bmax(MFI)	Kd
B1	316 MFI	5800 pM
B2	580 MFI	5200 pM
B3	603 MFI	2400 pM
B4	583 MFI	6000 pM
B5	646 MFI	4200 pM
B6	526 MFI	5000 pM
B7	513 MFI	6500 pM
B8	553 MFI	1800 pM
B9	662 MFI	5500 pM
B10	648 MFI	6900 pM
B11	648 MFI	7000 pM
B12	629 MFI	5800 pM
B13	597 MFI	3200 pM
